Assays:
[1] = target: T1, Oxa-23 carbapenemase enzyme (Acinetobacter baumannii, UniProt Q9L4P2 18-273); assay: binding to Oxa-23 on A. baumannii OMVs; method not given at this place
T1 construct: No signal peptide cleavage site is stated; also called class D beta-lactamase; 30kD protein

Oxa-23 [2] = target: T2, Oxa-23 (Acinetobacter baumannii, UniProt Q9L4P2); assay: Specific binding to Oxa-23 on OMVs (summary statement); conditions: on outer membrane vesicles (OMVs) of Acinetobacter baumannii bacteria
T2 construct: endogenous in cells; host or cells: OMVs of GC2 A. baumannii clinical strains

[3] = target: T1, Oxa-23 carbapenemase enzyme; assay: serological expression cloning: mAb screened on plaques of a phage expression library of A. baumannii genomic DNA (BAL 084, BAL 276), bound phage sequenced
E. coli NCTC 13441 LPS = assay: Western blot of extracted LPS (control); type: binding; conditions: E. coli NCTC13441 (025b)
Source text: (§1) Focusing on the cross-reactive mAbs identified, we used a phage expression library incorporating shotgun A. baumannii genomic DNA from strains BAL 084 and BAL 276. Because the mAbs could potentially bind a polypeptide epitope, we screened mAbs for reactivity with phage plaques from the phage expression library. Using this screening mechanism, we were able to identify individual phage binding to Abs 1348, 1349. By sequencing the phage, we were able to elucidate 1348 and 1349 bound Oxa-23, a class D […] that is a major group of enzymes involved in resistance to carbapenem antibiotics. That we have identified mAbs binding to Oxa-23 in a target agnostic screen is highly significant. […] Secondly, since Oxa-23 is a functional enzyme that inactivates carbapenem and carbapenem resistance is a major clinical issue for the treatment of nosocomial A. baumannii infection, it may be possible to block enzymatic function of Oxa-23 by mAbs and render A. baumannii susceptible to carbapenems. […] The LOS types were determined for a selection of isolates by OCL specific PCR. […] Next, LOS was extracted (with extensive proteinase K treatment to remove any proteins) and analyzed by Western blot using mAb 1042). […] Capsule antigens were extracted from selected strains bearing KL49 and analyzed by subsequent SDS-PAGE and Western blot analysis using the mAb 1416.

OC1 LOS = assay: Western blot of extracted LOS; type: binding, Acinetobacter baumannii
Source text: as §1

Oxa-23 [4] = target: T2, Oxa-23; assay: Phage expression library screen (serological expression cloning) for antigen identification; type: binding; conditions: phage expression library of genomic DNA from strains BAL 084 and BAL 276
Source text: The particular binding antigen (e.g. Oxa-23, OC1 LOS, or KL49) of an antibody may be determined using a phage expression library e.g. as described in Example 5. For example, shotgun A. Baumannii genomic DNA is incorporated into a phage expression library. The antibody is then screened for reactivity with phage plaques from the expression library and the individual phage binding to the antibody is identified. The identified phage is sequenced, and the sequencing information used to elucidate the binding antigen of the antibody. A suitable phage method for antigen identification will be known to a person skilled in the art. For example, a suitable phage method is described in Lodes M J, Dillon D C, Houghton R L, Skeiky Y A. Expression cloning. Methods Mol Med. 2004; 94:91-106. doi: 10.1385/1-59259-679-7:91. PMID: 14959824, the contents of which are incorporated by reference.
Focusing on the cross-reactive mAbs identified, we used a phage expression library incorporating shotgun A. baumannii genomic DNA from strains BAL 084 and BAL 276. […] The LOS types were determined for a selection of isolates by OCL specific PCR. […] Next, LOS was extracted (with extensive proteinase K treatment to remove any proteins) and analyzed by Western blot using mAb 1042). […] Capsule antigens were extracted from selected strains bearing KL49 and analyzed by subsequent SDS-PAGE and Western blot analysis using the mAb 1416.

T2 sequence (Q9L4P2 18-273): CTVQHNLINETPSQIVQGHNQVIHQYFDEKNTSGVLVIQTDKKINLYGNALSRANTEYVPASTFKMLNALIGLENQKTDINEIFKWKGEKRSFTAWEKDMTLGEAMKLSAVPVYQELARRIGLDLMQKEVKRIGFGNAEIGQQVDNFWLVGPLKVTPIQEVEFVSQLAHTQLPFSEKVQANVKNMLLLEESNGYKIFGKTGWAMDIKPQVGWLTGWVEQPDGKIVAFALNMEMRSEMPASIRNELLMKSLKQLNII
T1 sequence (Q9L4P2 18-273 limits assumed): as the sequence (Q9L4P2 18-273) above

| Molecule | binding result [1] | specific binding to Oxa-23 (Oxa-23 [2]) | also measured |
| --- | --- | --- | --- |
| Antibody 1550 (antibody, V domains shown, also called PPB-1550) VH: QVQLVESGGGVVQPGRSLRLSCAASGFTFSSYGMHWVRQAPGKGLEWVAVISYDGSNKYYADSVKGRFTISRDNSKNTLYLQMNSLRAEDTAVYYCAKESLTMVRGEGFDPWGQGTLVTVSS VL: DIQMTQSPSSVSASVGDRVTITCRASQGISSWLAWYQQKPGKAPKLLIYAASSLQSGVPSRFSGSGSGTDFTLTISSLQPEDFATYYCQQANSFPCSFGQGTKLEIK | binds | specifically bind to Oxa-23 | – |
| Antibody 1349 (antibody, V domains shown, It was expressed as human IgG1; also called PPB-1349) VH: QITLKESGPTLVKPTQTLTLTCTFSGFSLSTSGVGVGWIRQPPGKALEWLALIYWDDDKRYSPSLKSRLTITKDTSKNQVVLTMTNMDPVDTATYYCAHSYYYDSSDSYYFDYWGQGTLVTVSS VL: DIQLTQSPSFLSASVGDRVTITCWASQGISSRLAWYQQKPGKAPKLLIYAASTLQSGVPSRFSGSGSGTEFTLTISSLQPEDFGNYYCQQFNTYPFTFGPGTKVDIKR | – | – | binding result [3]: binds |
| Antibody 1042: anti-OC1 LOS antibody; VH SEQ ID No: 188, VL SEQ ID No: 191 (antibody, V domains shown) VH: QITLKESGPTLVKPTQTLTLTCTFSGFSLSTSGVGVGWIRQPPGKALEWLAVIYWDDDKRYSPSLKSRVTITKDTSKNQVVLTMTNMDPVDTATYYCAHSYYHDSSDSYYFDYWAQGTLVTVSS VL: DIQLTQSPSFLSASVGDRVTITCWASQGISSRLAWYQQKPGKAPKLLIYAASTLQSGVPSRFSGSGSGTEFTLTISSLQPEDFATYYCQQLTSYPFTFGPGTKVDIK | – | – | binding to extracted LPS (E. coli NCTC 13441 LPS): no binding; binding to extracted LOS (OC1 LOS; ATCC 17978 (OCL2)): no binding; binding to 10kD target in extracted LOS (OC1 LOS; OC1 isolates A. baumannii BAL_191, BAL_339, BAL_372): Specific binding |
| Antibody 1348 (antibody, V domains shown, Only variable domains are tied to 1348; also called PPB-1348) VH: EVQLVESGGGFVQPGRSLRLSCIASGFTFDDYAMHWVRQTPGKGLEWVSVISWNSVSIGYADSVKGRFTISRDNAKNSLYLQMNSLRAEDTALYYCARYSSGPDAFDIWGQGTMVTVSS VL: DIQMTQSPSSLSASVGDRVTITCRASQDIRNDLGWYQQKPGKAPKRLIYAASSLQSGVPSRFSGSGFGTEFTLTISSLQPEDFATYYCLQHYTYPPTFGGGTRVEIK | – | – | binding result [3]: binds |
| 1348 (antibody, V domains shown) VH: EVQLVESGGGFVQPGRSLRLSCIASGFTFDDYAMHWVRQTPGKGLEWVSVISWNSVSIGYADSVKGRFTISRDNAKNSLYLQMNSLRAEDTALYYCARYSSGPDAFDIWGQGTMVTVSS VL: DIQMTQSPSSLSASVGDRVTITCRASQDIRNDLGWYQQKPGKAPKRLIYAASSLQSGVPSRFSGSGFGTEFTLTISSLQPEDFATYYCLQHYTYPPTFGGGTRVEIK | – | specifically bind to Oxa-23 | antigen bound, elucidated by sequencing the binding phage (Oxa-23 [4]): bound Oxa-23 |
| Antibody 1540 (antibody, V domains shown, also called PPB-1540) VH: EVQLVESGGGFVQPGRSLRLSCIASGFTFDDYAMHWVRQTPGKGLEWVSVISWNSVSIGYADSVKGRFTISRDNAKNSLYLQMNSLRAEDTALYYCARYSSGPDAFDIWGQGTMVTVSS VL: DIQMTQSPSSLSASVGDRVTITCRASQDIRNDLGWYQQKPGKAPKRLIYAASSLQSGVPSRFSGSGFGTEFTLTISSLQPEDFATYYCLQHYTYPPTFGGGTRVEIK | binds | – | – |
| 1540 (antibody, V domains shown) VH: EVQLVESGGGFVQPGRSLRLSCIASGFTFDDYAMHWVRQTPGKGLEWVSVISWNSVSIGYADSVKGRFTISRDNAKNSLYLQMNSLRAEDTALYYCARYSSGPDAFDIWGQGTMVTVSS VL: DIQMTQSPSSLSASVGDRVTITCRASQDIRNDLGWYQQKPGKAPKRLIYAASSLQSGVPSRFSGSGFGTEFTLTISSLQPEDFATYYCLQHYTYPPTFGGGTRVEIK | – | specifically bind to Oxa-23 | – |
| Antibody 1548 (antibody, V domains shown, also called PPB-1548) VH: QVQLVESGGGVVQPGRSLRLSCAASGFTFSSYAMHWVRQAPGKGLEWVAVISYDGSNKYYADSVKGRFTISRDNSKNTLYLQMNSLRAEDTAVYYCAGYGGNSLDPWGQGTLVTVSS VL: AIQMTQSPSSLSASVGDRVTITCRASQGIRNDLVWYQQKPGKAPKVLIYDASSLQSGVPSRFSGSGFGTDFTLTISSLQPEDFATYYCLQDYNYPCSFGQGTKLEIK | binds | specifically bind to Oxa-23 | – |

From patent US20250026816A1, “Antibodies for Use as Therapeutics Against Bacterial Infections” (priority 2021, published 2025)
